Experimental data published in patent US20250019439A1 (Adimab, published 2025).

Legend:
[1] = target: T1, ADI-26919; assay: SPR Carterra avidity, CHO anti-ID
T1 construct: anti-CD3 antibody made in CHO cells, captured by anti-human Fc
Protocol: (§1) Kinetic analysis was conducted at 25° C. in an HBSTE running buffer system (Carterra Cat #3630) using a Carterra LSA (Carterra USA, Salt Lake City, UT). The sample compartment was maintained at 20° C. for the duration of each experiment.
(§2) For antibody capture experiments, a goat anti-human Fc antibody (Jackson ImmunoResearch) was covalently coupled to an HC30M sensor chip surface via standard amine coupling (1:1 EDC:NHS) and then blocked with ethanolamine (1.0 M, pH 8.5). Covalent coupling steps were performed in 25 mM MES buffer (Carterra, Cat #3625) plus 0.05% Tween20. The anti-CD3 antibodies (100 nM in running buffer) were flowed over discrete regions of interest on the chip surface for 5 minutes. […] Dissociation of the anti-idiotype antibodies was monitored for 300s. Several blank buffer samples were injected over the entire chip surface at the start of each non-regenerative kinetic cycle. The preceding blank buffer injection was used for blank surface subtraction. At the end of each non-regenerative kinetic cycle, all surfaces were regenerated via two 30s injections of 10 mM glycine, pH 1.7.
(§3) In Tables 10A-10C, anti-CD3 antibodies are listed by ADI number or CTL number in the first column. […] CTL-62223 is mosunetuzumab, CTL-62227 is odronextamab, CTL-62228 is glofitamab, and CTL-62240 is ONO-4685. […] “W.B.” means weak binding under the conditions of this assay and thus a KD was unable to be assigned. “N.B.” means no binding under the conditions of this assay.

[2] = target: T2, ADI-67447; assay: SPR Carterra avidity, CHO anti-ID
T2 construct: anti-CD3 antibody made in CHO cells, captured by anti-human Fc
Protocol: as §1, §2, §3

[3] = target: T3, ADI-26920 IgG; assay: SPR Carterra avidity, CHO anti-ID
T3 construct: anti-CD3 IgG
Protocol: as §1, §2, §3

[4] = target: T4, ADI-26916 anti-CD3 bsIgG; assay: BLI; tip anti-CD3 bsIgG, solution ADI-34134 IgG
T4 construct: anti-HER2 IgG with one Fab arm replaced by the anti-CD3 scFv (printed 'Vx-VH', read as VL-VH); S354C and Y349C mutations; also called anti-CD3 bsIgG (ADI-26916 scFv); not shown: scFv linker; anti-HER2 Fab arm (heavy and light chain); hinge and Fc with S354C/Y349C; copies: 1 + 1
Protocol: (§4) ForteBio affinity measurements were performed generally as previously described (Estep et al., MAbs. 2013 5(2):270-8). Briefly, ForteBio affinity measurements were performed by loading antibody IgG or Fabs on-line onto AHC sensors. Sensors were equilibrated off-line in assay buffer for 30 minutes and then monitored on-line for 60 seconds for baseline establishment. For avid binding measurement, sensors with loaded antibodies were exposed to IgG or Fab solutions for 3 minutes, afterwards they were transferred to assay buffer for 3 minutes for off-rate measurement. Kinetics data were fit using a 1:1 binding model in the data analysis software provided by ForteBio to obtain equilibrium dissociation constant (KD=koff/kₒₙ) values. In each column, tip-immobilized antibodies are listed first and solution antibodies second.
(§5) Additional analysis was conducted using bispecific antibody formats incorporating anti-CD3 antibody variable domains. Bispecific antibodies were prepared using standard IgG formats (bsIgG) with replacement of Fab arms with anti-CD3 scFvs in Vx-VH orientation and with S354C and Y349C mutations for disulfide stabilization. Antibodies used for Fab arm replacement were anti-HER2 IgG antibodies, with one Fab arm from each replaced by a scFv corresponding to a different anti-CD3 antibody. […] In each column, tip-immobilized antibodies are listed first and solution antibodies second. Anti-CD3 antibodies associated with incorporated scFvs are listed by antibody number.

[5] = target: T5, ADI-26913 anti-CD3 bsIgG; assay: BLI; tip anti-CD3 bsIgG, solution ADI-34134 IgG
T5 construct: anti-HER2 IgG with one Fab arm replaced by the anti-CD3 scFv (printed 'Vx-VH', read as VL-VH); S354C and Y349C mutations; also called anti-CD3 bsIgG (ADI-26913 scFv); not shown: scFv linker; anti-HER2 Fab arm (heavy and light chain); hinge and Fc with S354C/Y349C
Protocol: as §4, §5

[6] = target: T6, CTL-19613 anti-CD3 bsIgG (In the assay the two domains were one scFv (VL-VH orientation, linker not given). It replaced one Fab arm of an anti-HER2 IgG; S354C and Y349C mutations are stated for disulfide stabilization.); assay: BLI; tip anti-CD3 bsIgG, solution ADI-34134 IgG
T6 construct: anti-HER2 IgG with one Fab arm replaced by the anti-CD3 scFv (printed 'Vx-VH', read as VL-VH); S354C and Y349C mutations; also called anti-CD3 bsIgG (CTL-19613 scFv); not shown: scFv linker between VL and VH; anti-HER2 heavy and light chains of the other arm; hinge and Fc (with S354C / Y349C)
Protocol: as §4, §5

[7] = target: T7, ADI-26928 anti-CD3 bsIgG; assay: BLI; tip anti-CD3 bsIgG, solution ADI-34134 IgG
T7 construct: anti-HER2 IgG with one Fab arm replaced by the anti-CD3 scFv (printed 'Vx-VH', read as VL-VH); S354C and Y349C mutations; also called anti-CD3 bsIgG (ADI-26928 scFv); not shown: scFv linker; anti-HER2 Fab arm (heavy and light chain); hinge and Fc with S354C/Y349C
Protocol: as §4, §5

[8] = target: T8, ADI-22523 anti-CD3 bsIgG (In the assayed molecule VL and VH are joined as one scFv (printed 'Vx-VH' orientation) by an undisclosed linker and fused to an Fc, paired with an anti-HER2 half-IgG. They are given here as two …); assay: BLI; tip anti-CD3 bsIgG, solution ADI-34134 IgG
T8 construct: anti-HER2 IgG with one Fab arm replaced by the anti-CD3 scFv (printed 'Vx-VH', read as VL-VH); S354C and Y349C mutations; not shown: scFv linker between VL and VH; anti-HER2 heavy and light chains; hinge and Fc with S354C/Y349C
Protocol: as §4, §5

[9] = target: T9, ADI-76358; assay: SPR Carterra avidity, CHO anti-ID
T9 construct: anti-CD3 antibody made in CHO cells, captured by anti-human Fc
Protocol: as §1, §2, §3

[10] = target: T10, ADI-74966; assay: SPR Carterra avidity, CHO anti-ID
T10 construct: pH-dependent anti-CD3 antibody made in CHO cells
Protocol: as §1, §2, §3

[11] = target: T11, ADI-70327; assay: SPR Carterra avidity, CHO anti-ID
T11 construct: anti-CD3 antibody made in CHO cells, captured by anti-human Fc
Protocol: as §1, §2, §3

[12] = target: T12, ADI-70326; assay: SPR Carterra avidity, CHO anti-ID
T12 construct: anti-CD3 antibody made in CHO cells, captured by anti-human Fc
Protocol: as §1, §2, §3

[13] = target: T13, ADI-76362; assay: SPR Carterra avidity, CHO anti-ID
T13 construct: anti-CD3 antibody made in CHO cells, captured by anti-human Fc
Protocol: as §1, §2, §3

[14] = target: T14, ADI-48587; assay: SPR Carterra avidity, CHO anti-ID
T14 construct: pH-dependent anti-CD3 antibody made in CHO cells
Protocol: as §1, §2, §3

T13 sequence (VH, as listed by the source, chain 1 of 2): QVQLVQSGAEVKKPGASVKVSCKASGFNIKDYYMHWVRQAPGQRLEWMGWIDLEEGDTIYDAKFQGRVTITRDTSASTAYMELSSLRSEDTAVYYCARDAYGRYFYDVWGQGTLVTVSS
T13 sequence (VL, as listed by the source, chain 2 of 2): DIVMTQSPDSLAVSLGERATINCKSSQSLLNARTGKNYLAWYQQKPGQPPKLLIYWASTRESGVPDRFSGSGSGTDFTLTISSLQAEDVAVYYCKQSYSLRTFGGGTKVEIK
T3 sequence (VH, as listed by the source limits assumed, chain 1 of 2): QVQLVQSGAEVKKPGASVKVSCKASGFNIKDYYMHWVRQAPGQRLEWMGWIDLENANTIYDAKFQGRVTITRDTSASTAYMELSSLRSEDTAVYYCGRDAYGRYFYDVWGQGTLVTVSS
T4 sequence (VH, as listed by the source limits assumed, chain 1 of 2): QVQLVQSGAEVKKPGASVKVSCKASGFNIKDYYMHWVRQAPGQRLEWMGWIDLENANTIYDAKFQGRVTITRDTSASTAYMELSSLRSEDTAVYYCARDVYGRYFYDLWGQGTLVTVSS
T4 sequence (VL, as listed by the source limits assumed, chain 2 of 2): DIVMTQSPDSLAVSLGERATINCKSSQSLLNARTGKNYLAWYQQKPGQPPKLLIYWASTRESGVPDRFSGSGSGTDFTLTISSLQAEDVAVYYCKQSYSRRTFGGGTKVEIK
T1 sequence (VH, as listed by the source limits assumed, chain 1 of 2): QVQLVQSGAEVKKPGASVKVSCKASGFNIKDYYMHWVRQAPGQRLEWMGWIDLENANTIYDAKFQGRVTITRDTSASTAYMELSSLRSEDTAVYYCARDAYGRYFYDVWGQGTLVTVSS
T9 sequence (VH, as listed by the source, chain 1 of 2): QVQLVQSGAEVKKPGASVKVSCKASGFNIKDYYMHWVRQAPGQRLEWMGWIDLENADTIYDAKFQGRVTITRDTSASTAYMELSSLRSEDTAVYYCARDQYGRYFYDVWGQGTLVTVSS
T7 sequence (VH, as listed by the source limits assumed, chain 1 of 2): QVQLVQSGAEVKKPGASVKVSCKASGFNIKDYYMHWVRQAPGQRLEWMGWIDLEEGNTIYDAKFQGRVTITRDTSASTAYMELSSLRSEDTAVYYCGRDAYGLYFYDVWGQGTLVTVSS
T12 sequence (VH, as listed by the source limits assumed, chain 1 of 2): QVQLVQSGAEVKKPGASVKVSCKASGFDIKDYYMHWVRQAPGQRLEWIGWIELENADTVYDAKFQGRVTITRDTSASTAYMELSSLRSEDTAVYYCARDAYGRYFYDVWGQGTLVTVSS
T12 sequence (VL, as listed by the source limits assumed, chain 2 of 2): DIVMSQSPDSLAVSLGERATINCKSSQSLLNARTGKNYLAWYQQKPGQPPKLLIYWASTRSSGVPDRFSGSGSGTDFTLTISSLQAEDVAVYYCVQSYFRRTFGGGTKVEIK
T2 sequence (VH, as listed by the source limits assumed, chain 1 of 2): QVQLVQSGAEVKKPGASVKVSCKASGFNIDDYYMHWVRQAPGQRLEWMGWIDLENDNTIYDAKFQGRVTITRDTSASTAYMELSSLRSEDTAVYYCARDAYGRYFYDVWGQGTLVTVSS
T11 sequence (VH, as listed by the source limits assumed, chain 1 of 2): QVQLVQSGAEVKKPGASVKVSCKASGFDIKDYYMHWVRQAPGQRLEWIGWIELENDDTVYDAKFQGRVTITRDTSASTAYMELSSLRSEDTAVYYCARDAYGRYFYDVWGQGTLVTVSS
T8 sequence (VH, as listed by the source limits assumed, chain 1 of 2): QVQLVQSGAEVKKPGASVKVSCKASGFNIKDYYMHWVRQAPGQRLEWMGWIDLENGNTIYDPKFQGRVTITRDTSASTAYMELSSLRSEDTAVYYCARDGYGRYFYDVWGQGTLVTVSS
T8 sequence (VL, as listed by the source limits assumed, chain 2 of 2): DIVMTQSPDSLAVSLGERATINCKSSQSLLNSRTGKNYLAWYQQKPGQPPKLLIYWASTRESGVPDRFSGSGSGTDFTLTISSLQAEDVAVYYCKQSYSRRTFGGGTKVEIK
T5 sequence (VH, as listed by the source limits assumed, chain 1 of 2): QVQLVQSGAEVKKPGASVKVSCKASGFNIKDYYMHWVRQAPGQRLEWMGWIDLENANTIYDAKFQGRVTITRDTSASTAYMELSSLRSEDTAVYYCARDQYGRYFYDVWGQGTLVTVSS
T10 sequence (VH, as listed by the source, chain 1 of 2): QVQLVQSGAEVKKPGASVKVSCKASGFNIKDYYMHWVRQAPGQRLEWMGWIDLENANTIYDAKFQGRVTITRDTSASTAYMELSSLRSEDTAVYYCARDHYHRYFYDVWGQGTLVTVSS
T10 sequence (VL, as listed by the source, chain 2 of 2): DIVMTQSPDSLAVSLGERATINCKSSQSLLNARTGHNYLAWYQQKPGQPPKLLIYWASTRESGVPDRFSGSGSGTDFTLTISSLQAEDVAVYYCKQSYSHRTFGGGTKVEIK
T14 sequence (VL, as listed by the source, chain 2 of 2): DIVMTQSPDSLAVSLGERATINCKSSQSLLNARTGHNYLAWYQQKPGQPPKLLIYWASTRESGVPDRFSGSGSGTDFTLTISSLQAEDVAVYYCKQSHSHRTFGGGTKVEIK

B1: ADI-34145 IgG (antibody, V domains shown)
VH: EVQLLESGGGLVQPGGSLRLSCAASGFTFSSYAMSWVRQAPGKGLEWVSTISGSGGSTYYADSVKGRFTISRDNSKNTLYLQMNSLRAEDTAVYYCARLGGRRGSGSSYYYYYGMDVWGQGTTVTVSS
VL: not shown
notes: anti-ID IgG
B1 was tested, and the Kd [1] was 12 nM, the Kd [2] was 14 nM and the Kd [3] was 15 nM.

B2: ADI-34134 IgG (antibody, V domains shown)
VH: QVQLVQSGAEVKKPGSSVKVSCKASGGTFSSYAISWVRQAPGQGLEWMGGIIPIFGTANYAQKFQGRVTITADESTSTAYMELSSLRSEDTAVYYCARGAPNYYGSGGYDDGWFDPWGQGTLVTVSS
VL: EIVLTQSPGTLSLSPGERATLSCRASQSVSSDYLAWYQQKPGQAPRLLIYGASSRATGIPDRFSGSGSGTDFTLTISRLEPEDFAVYYCQQFGRVPTFGGGTKVEIK
In the case of B2, the Kd [4] is reported as 1.94 nM, the Kd [5] is reported as 0.98 nM and the binding result [6] is reported as “no binding”. For the same binder, the Kd [7] was 1.39 nM, the Kd [8] was 0.47 nM and the Kd [9] was 0.54 nM. For the same binder, the Kd [10] was 0.39 nM, the Kd [11] was 1.3 nM and the Kd [12] was 1.2 nM. The Kd [13] was 0.23 nM and the Kd [14] was 1.3 nM.
